In PMC4116148 (Biochemistry, 2014):
Read-outs that look alike come from different tables or passages of the source. Non-standard residues stand in square brackets, D forms with d. fluorescein = fluorescein: fluorescein label on the Lys side chain; code γ = not defined here

T1: cNPF1 (head-to-tail cyclic)
T1 chain: YNPFEEGG

T2: cAPA (head-to-tail cyclic)
T2 chain: YAPAEEGG

T3: cNPF1B (SMILES CC(=O)NCCCC[C@@H]1NC(=O)CNC(=O)[C@H](CCC(=O)O)NC(=O)[C@H](CCC(=O)O)NC(=O)[C@H](Cc2ccccc2)NC(=O)[C@@H]2CCCN2C(=O)[C@H](CC(N)=O)NC(=O)[C@H](Cc2ccc(O)cc2)NC1=O)
T3 chain: cyclo(YNPFEEGK(Ac))

T4: cNPF3Flu
T4 chain: cyclo(YNPFEEK(fluorescein))

T5: cNPF5Flu
T5 chain: cyclo(YNPFEAGK(fluorescein))

T6: cNPF4Flu
T6 chain: cyclo(YNPFAEGK(fluorescein))

T7: cNPF6Flu
T7 chain: cyclo(YNPFEQGK(fluorescein))

T8: cAPAFlu
T8 chain: cyclo(YAPAEEGK(fluorescein))

T9: cNPF2Flu (reading uncertain)
T9 chain: cyclo(YNPFEE[code γ]K(fluorescein))

T10: cNPF1Flu
T10 chain: cyclo(YNPFEEGK(fluorescein))

B1: EHD1 EH domain EH (protein)
chain: VGKDKPTYDEIFYTLSPVNGKITGANAKKEMVKSKLPNTVLGKIWKLADVDKDGLLDDEEFALANHLIKVKLEGHELPADLPPHLVPPSKRRHE

Columns and labels:
dynamin GTPase activity = settings: biochemical assay of dynamin GTPase activity; cited from earlier work
cNPF1 [1] = target: T1, cNPF1; experiment: ITC
cAPA = target: T2, cAPA; experiment: fluorescence polarization competition
cNPF1 [2] = target: T1, cNPF1; experiment: fluorescence polarization competition
cNPF1B = target: T3, cNPF1B; experiment: fluorescence polarization competition
cNPF3Flu [3] = target: T4, cNPF3Flu; experiment: fluorescence polarization
cNPF5Flu [4] = target: T5, cNPF5Flu; experiment: fluorescence polarization
cNPF4Flu [5] = target: T6, cNPF4Flu; experiment: fluorescence polarization
cNPF6Flu [6] = target: T7, cNPF6Flu; experiment: fluorescence polarization
cAPAFlu = target: T8, cAPAFlu; experiment: fluorescence polarization
cNPF2Flu [7] = target: T9, cNPF2Flu; experiment: fluorescence polarization
cNPF1Flu [8] = target: T10, cNPF1Flu; experiment: fluorescence polarization
cNPF3Flu [9] = target: T4, cNPF3Flu; experiment: fluorescence polarization
cNPF5Flu [10] = target: T5, cNPF5Flu; experiment: fluorescence polarization
cNPF4Flu [11] = target: T6, cNPF4Flu; experiment: fluorescence polarization
cNPF6Flu [12] = target: T7, cNPF6Flu; experiment: fluorescence polarization
cNPF2Flu [13] = target: T9, cNPF2Flu; experiment: fluorescence polarization
cNPF1Flu [14] = target: T10, cNPF1Flu; experiment: fluorescence polarization

Molecule | IC50 (dynamin GTPase activity) [µM] | Kd (cNPF1 [1]) [µM] | IC50 (cAPA) [µM] | IC50 (cNPF1 [2]) [µM] | IC50 (cNPF1B) [µM] | Kd (cNPF3Flu [3]) [µM] | Kd (cNPF5Flu [4]) [µM] | Kd (cNPF4Flu [5]) [µM] | Kd (cNPF6Flu [6]) [µM] | Kd (cAPAFlu) [µM] | Kd (cNPF2Flu [7]) [µM] | Kd (cNPF1Flu [8]) [µM] | Kd (cNPF3Flu [9]) [µM] | Kd (cNPF5Flu [10]) [µM] | Kd (cNPF4Flu [11]) [µM] | Kd (cNPF6Flu [12]) [µM] | Kd (cNPF2Flu [13]) [µM] | Kd (cNPF1Flu [14]) [µM]
O=C(N/N=C/c1ccc(O)c(O)c1)c1cc2ccccc2cc1O [dynasore] | ~15 | – | – | – | – | – | – | – | – | – | – | – | – | – | – | – | – | –
B1 | – | 9.9 | > 450 | 49.2 | 100 | 11.3 | 8.7 | 17.4 | 12.8 | > 67 | 4.5 | 3.3 | 57.8 | 28.3 | 46.7 | 34 | 20.5 | 16.8
